Results: US20210261650A1 (published 2021)

B1: SARS-CoV-2 S306 mAb (antibody, V domains shown)
VH: QVQLVQSGAEVKKPGASVKVSCKASTYTFTSFGISWVRQAPGQGLEWMGWITTYSGDTNYAQKFQGRVTMTTDTSTNTAYMELRSLRSDDTAVYYCASDYFDSSGYYHSFDYWGQGTLVTVSS
VL: EIVLTQSPDTLSLSPGERATLSCRASQSVSSYLAWYQQRPGQAPRLLIYDASKRATGIPARFSGSGSGTDFTLTISSLEPEDFAVYYCQQRSNWPPGCSFGQGTKVEIK
B2: SARS-CoV-2 S303 mAb (antibody, V domains shown)
VH: EVQLVESGGGLVKPGGSLRLSCAASGFTFLTYSMNWVRQTPGKRLQWVSAISGSGGATYYADSVKGRFTISRDNSKNTLYLQMNTVTADDTAIYFCARERDDIFPMGLNAFDIWGQGAMVIVSS
VL: DIQMTQSPSTLSASVGDRVTITCRASQSISNWLAWYQQKPGKAPKLLIYKASSLESGVPSRFSGSGSGTEFTLTISSLQPDDSATYYCQQYDTYSWTFGQGTKVEIK
B3: SARS-CoV-2 S310 mAb (antibody, V domains shown)
VH: QVQLVQSGAELKKPGSSVKVSCKASGGTFNSYSFNWVRQAPGQGLEWLGGIIPVLGTSNYAQKFQGRVAVTADEFTTTAYMELSSLRSEDTAVYYCATRTYDSSGYRPYYYGLDVWGQGTPVTVSS
VL: QSALTQPASVSGSPGQSITISCTGTSSDVGSYNLVSWYQQRPGKAPELMIYEVTKRPSGLSNRFSGSKSGNTASLTISGLQAEDEADYYCCSYAGSDTVIFGGGTKVTVL
B4: SARS-CoV-2 S304 mAb (antibody, V domains shown)
VH: EVQLVESGGGLVQPGGSLRLSCAASGFTFSSYDMHWVRQTTGKGLEWVSTIGTAGDTYYPDSVKGRFTISREDAKNSLYLQMNSLRAGDTAVYYCARGDSSGYYYYFDYWGQGTLLTVSS
VL: DIQMTQSPSSLSAAVGDRVTITCRASQSIGSYLNWYQQKPGKAPKLLIYAASSLQSGVPSRFSGSGSGTDFTLTISSLQPEDFAIYYCQQSYVSPTYTFGPGTKVDIK
B5: SARS-CoV-2 S315 mAb (antibody, V domains shown)
VH: EVQLVESGGGLVQPGGSLRLSCAASGFTFSNYWMTWVRQAPGKGLEWVANIKQDGSEKYYVDSVKGRFTISRDNAKNSLYLQMNSLRAEDTAVYYCARDLWWNDQAHYYGMDVWGQGTTVTVSS
VL: SYELTQPPSVSVSPGQTARITCSGDAFPNQYAYWYQQKPGQAPVMLIYKDSERPSGIPERFFGSSSGTTVTLTIRGVQAEDEADYYCQSADSSGTVFGGGTKLTVL

Experiments:
[1] = molecular target: SARS-CoV-2 Spike (S) protein, strain BetaCoV/Wuhan-Hu-1/2019, expressed on ExpiCHO cells (UniProt P0DTC2 14-1273); assay: flow
[2] = molecular target: SARS-CoV-1 S protein expressed on ExpiCHO cells (SARS-CoV-1, UniProt P59594 14-1255); assay: flow
[3] = molecular target: SARS-CoV-1 RBD (Sino Biological) (SARS-CoV-1, UniProt P59594 306-527); assay: BLI

| Binder | EC50 [1] | EC50 [2] | Kd [3] |
| --- | --- | --- | --- |
| B1 | 1.42 ng/mL | 20.8 ng/mL | – |
| B2 | – | 1.06 ng/mL | 0.869 nM |
| B3 | – | 254 ng/mL | – |
| B4 | – | 11.4 ng/mL | – |
| B5 | – | 7.59 ng/mL | – |
